Experimental data: patent US20220033520A1

What was measured:
[1] = molecular target: human FcRn complex (FCGRT and beta-2 microglobulin), recombinant, purified (human) (UniProt P55899); test: SPR, anti-human Fab capture, pH 6, steady state
[2] = molecular target: human FcRn complex (FCGRT and beta-2 microglobulin), recombinant, purified (human) (UniProt P55899); test: SPR, anti-human Fab capture, pH 7.4, steady state
[3] = molecular target: human FcRn complex (FCGRT and beta-2 microglobulin), recombinant, purified (human) (UniProt P55899); test: SPR, protein L capture, pH 6, kinetic
[4] = molecular target: human FcRn (FCGRT and beta-2 microglobulin) expressed on MDCK II cells (human) (UniProt P55899); test: cell-based or functional assay
[5] = molecular target: human FcRn complex (FCGRT and beta-2 microglobulin), recombinant, purified (human) (UniProt P55899); test: SPR, protein L capture, pH 7.4, steady state

human FcRn complex (FCGRT and beta-2 microglobulin), recombinant, purified (human), sequence (P55899 24-297 limits assumed, chain 1 of 2): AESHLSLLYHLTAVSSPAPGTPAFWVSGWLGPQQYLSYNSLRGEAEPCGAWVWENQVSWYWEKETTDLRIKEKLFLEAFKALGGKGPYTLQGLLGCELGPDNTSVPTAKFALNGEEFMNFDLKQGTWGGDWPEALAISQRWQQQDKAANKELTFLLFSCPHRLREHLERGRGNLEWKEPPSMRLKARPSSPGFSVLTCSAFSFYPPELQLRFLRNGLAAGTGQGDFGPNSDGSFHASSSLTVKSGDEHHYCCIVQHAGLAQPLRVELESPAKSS
human FcRn complex (FCGRT and beta-2 microglobulin), recombinant, purified (human), sequence (P61769 21-119 limits assumed, chain 2 of 2, further chain): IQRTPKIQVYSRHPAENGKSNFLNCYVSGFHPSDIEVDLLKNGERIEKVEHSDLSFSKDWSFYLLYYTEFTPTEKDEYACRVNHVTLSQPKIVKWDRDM
human FcRn (FCGRT and beta-2 microglobulin) expressed on MDCK II cells (human), sequence (P55899 24-365, chain 1 of 2): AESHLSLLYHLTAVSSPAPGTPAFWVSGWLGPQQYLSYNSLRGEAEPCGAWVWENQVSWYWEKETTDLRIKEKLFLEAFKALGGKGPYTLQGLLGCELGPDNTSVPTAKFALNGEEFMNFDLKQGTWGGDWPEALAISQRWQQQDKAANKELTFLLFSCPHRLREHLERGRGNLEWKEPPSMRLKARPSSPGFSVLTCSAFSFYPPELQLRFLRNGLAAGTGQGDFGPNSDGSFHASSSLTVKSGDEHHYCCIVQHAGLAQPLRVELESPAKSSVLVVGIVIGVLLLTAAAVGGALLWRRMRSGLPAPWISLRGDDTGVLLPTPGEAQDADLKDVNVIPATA
human FcRn (FCGRT and beta-2 microglobulin) expressed on MDCK II cells (human), sequence (P61769 21-119, chain 2 of 2, further chain): as the sequence (P61769 21-119 limits assumed, chain 2 of 2, further chain) above
antibody comprising wild-type hIgG4 (Table 2), sequence (Fc): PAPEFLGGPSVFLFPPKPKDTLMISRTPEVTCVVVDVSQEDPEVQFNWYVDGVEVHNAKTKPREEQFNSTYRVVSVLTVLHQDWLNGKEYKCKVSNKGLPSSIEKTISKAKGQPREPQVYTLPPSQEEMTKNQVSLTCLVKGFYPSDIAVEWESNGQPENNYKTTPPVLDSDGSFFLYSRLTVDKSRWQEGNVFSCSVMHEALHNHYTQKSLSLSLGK

Substance	Kd [1] [nM]	Kd [2] [nM]	Kd [3] [nM]	koff [3] [s⁻¹]	kon [3] [M⁻¹ s⁻¹]	Transcytosis Normalized to WT (normalized to WT) [4]	Kd [5] [nM]
anti-Abeta hIgG1 antibody, Fc modification D1 (M252Y/N434Y)	14	1150					
anti-Abeta hIgG1 antibody, Fc modification Q1 (M252Y/T307Q/Q311I/N434Y)	12.7	206					
anti-Abeta hIgG1 antibody, Fc modification Q2 (M252Y/T307Q/M428L/N434Y)	10.2	482					
anti-Abeta hIgG1 antibody, Fc modification Q3 (M252Y/T307Q/N434Y/Y436I)		206					
anti-Abeta hIgG1 antibody, Fc modification Q4 (M252Y/Q311I/M428L/N434Y)	12.8	667					
anti-Abeta hIgG1 antibody, Fc modification Q5 (M252Y/Q311I/N434Y/Y436I)	10.8	265					
anti-Abeta hIgG1 antibody, Fc modification Q6 (M252Y/M428L/N434Y/Y436I)	10.2	367					
anti-Abeta hIgG1 antibody, Fc modification Q7 (M252Y/Q311A/N434Y/Y436I)	8.2	292					
anti-Abeta hIgG1 antibody, Fc modification Q95 (M252Y/T307Q/Q311A/N434Y)	8.2	340					
anti-Abeta hIgG1 antibody, Fc modification T3 (M252Y/Q311I/N434Y)	11.6	554					
anti-Abeta hIgG1 antibody, Fc modification T94 (M252Y/N286E/N434Y)	10.1	521					
anti-Abeta hIgG4 antibody, Fc modification Q2 (M252Y/T307Q/M428L/N434Y)		339					
anti-Abeta hIgG4 antibody, Fc modification Q5 (M252Y/Q311I/N434Y/Y436I)		151					
anti-BACE1 hIgG1 antibody, Fc modification D7 (H433K/N434Y)			92.2	0.00192	20800	9.4	
anti-BACE1 hIgG1 antibody, Fc modification D92 (M252W/N434W)			12.4	0.0074	595000	92	760
anti-BACE1 hIgG1 antibody, Fc modification Q4 (M252Y/Q311I/M428L/N434Y)			57.3	0.0107	186000	159	1270
anti-BACE1 hIgG1 antibody, Fc modification Q5 (M252Y/Q311I/N434Y/Y436I)	8.8		5.09			133	252
anti-BACE1 hIgG1 antibody, Fc modification S1 (M252Y)			117	0.00172	14700	1.7	
anti-BACE1 hIgG1 antibody, Fc modification S2 (N286E)			303	0.00316	10400	1.7	
anti-BACE1 hIgG1 antibody, Fc modification S4 (H310A)						1.1	
anti-BACE1 hIgG1 antibody, Fc modification S6 (Q311I)			171	0.00157	9190	1.7	
anti-BACE1 hIgG1 antibody, Fc modification S7 (M428L)			178	0.00202	11300	2	
anti-BACE1 hIgG1 antibody, Fc modification S8 (H433K)			363	0.0048	13200	2.9	
anti-BACE1 hIgG1 antibody, Fc modification S9 (N434F)			100	0.0419	418000	6.3	
anti-BACE1 hIgG1 antibody, Fc modification S10 (N434W)			54.9	0.051	929000	26	5530
anti-BACE1 hIgG1 antibody, Fc modification S11 (N434Y)			73.6	0.0141	191000	7.8	

Substance	Kd [1] [nM]	Kd [2] [nM]	Kd [3] [nM]	koff [3] [s⁻¹]	kon [3] [M⁻¹ s⁻¹]	Transcytosis Normalized to WT (normalized to WT) [4]	Kd [5] [nM]
anti-BACE1 hIgG1 antibody, Fc modification S12 (Y436I)			201	0.00193	9590	1.8	
anti-BACE1 hIgG1 antibody, Fc modification T1 (M252Y/T307Q/N434Y)			12	0.0101	874000	125	461
anti-BACE1 hIgG1 antibody, Fc modification T2 (M252Y/Q311A/N434Y)			20	0.0178	908000	111	614
anti-BACE1 hIgG1 antibody, Fc modification T4 (M252Y/M428L/N434Y)			30	0.0201	660000	100	2200
anti-BACE1 hIgG1 antibody, Fc modification T5 (M252Y/H433K/N434Y)			34	0.0357	1.05e+06	112	730
anti-BACE1 hIgG1 antibody, Fc modification T6 (M252Y/N434Y/Y436I)						133	459
anti-BACE1 hIgG1 antibody, Fc modification T7 (T307Q/N286E/N434Y)			19	0.0177	931000	91	1120
anti-BACE1 hIgG1 antibody, Fc modification T8 (T307Q/Q311A/N434Y)			37	0.0319	854000	64	1680
anti-BACE1 hIgG1 antibody, Fc modification T9 (T307Q/Q311I/N434Y)			520	0.00767	14800	140	1930
anti-BACE1 hIgG1 antibody, Fc modification T11 (T307Q/H433K/N434Y)			37	0.0166	445000	65	4800
anti-BACE1 hIgG1 antibody, Fc modification T12 (T307Q/N434Y/Y436I)						112	
anti-BACE1 hIgG1 antibody, Fc modification T13 (N286E/Q311A/N434Y)			38	0.0327	852000	108	2450
anti-BACE1 hIgG1 antibody, Fc modification T14 (N286E/Q311I/N434Y)			36	0.0278	772000	73	3110
anti-BACE1 hIgG1 antibody, Fc modification T16 (N286E/H433K/N434Y)			66.7	0.0271	406000	55	4980
anti-BACE1 hIgG1 antibody, Fc modification T17 (N286E/N434Y/Y436I)			53	0.0334	631000	65	6080
anti-BACE1 hIgG1 antibody, Fc modification T18 (Q311A/M428L/N434Y)						140	
anti-BACE1 hIgG1 antibody, Fc modification T19 (Q311A/H433K/N434Y)			53.5	0.0096	179000	55	4480
anti-BACE1 hIgG1 antibody, Fc modification T22 (Q311I/H433K/N434Y)			64			131	9030
anti-BACE1 hIgG1 antibody, Fc modification T26 (H433K/N434Y/Y436I)						71	
anti-BACE1 hIgG1 antibody, Fc modification T94 (M252Y/N286E/N434Y)		380	13.6			87	452
anti-BACE1 hIgG1 antibody, Fc modification T96 (M252Y/V308P/N434Y)			3.54	0.00314	887000	94	123
anti-BACE1 hIgG4 antibody, Fc modification T6-IgG4 (M252Y/N434Y/Y436I)						66	412
antibody comprising modified Fc M428L/N434A (LA) (Table 2)			99.2	0.00371	37400	5.1	
antibody comprising wild-type hIgG1 (Table 2)			732	0.0164	22300	1	
antibody comprising wild-type hIgG4 (Table 2)			563	0.0119	21100	1	
